Molecular target: LC3 (Microtubule-associated protein 1A/1B-light chain 3) (UniProt Q9GZQ8 1-120)
Test: ITC; 100 µM LC3 titrated into 10 µM PfUIS3; MicroCal ITC 200, 25 °C; 50 mM sodium phosphate, 150 mM NaCl, pH 6.5; one-site binding model
Settings: both partners purified

B1: Plasmodium falciparum UIS3 (Upregulated in infective sporozoites 3) (natural protein)
chain: INKINLNKPIIENKNNVDVSIKRYNNFVDIARLSIQKHFEHLSNDQKDSHVNNMEYMQKFVQGLQENRNISLSKYQENKAVMDLKYHLQKVYANYLSQEEN
modifications: Construct limits are not given; the soluble domain is taken from PDB 2VWA, which the paper cites for PfUIS3. The His tag was removed with thrombin; the residual myc tag is left out.
How did the Kd turn out when B1 was run?
Its Kd is 2.15 ± 0.121 µM.

Source: article PMC7677311, “Disrupting Plasmodium UIS3–host LC3 interaction with a small molecule causes parasite elimination from host cells” (Communications Biology, 2020)
